Assay results as given in patent publication US20260000736A1, “PURIFIED LACTOFERRIN COMPOSITIONS AND METHODS OF USE” (Lactea Therapeutics LLC, priority 2023, published 2026).

Tests used:
[1] = system: Salivary bacteria (including Lactobacillus, Lactococcus, and Streptococcus mutans); assay: Salivary bacteria acid production, pH over time; format: cell-based; conditions: in the presence of sucrose, entire 6 hour testing period
Protocol: Salivary bacteria (including Lactobacillus, Lactococcus, and Streptococcus mutans) produce acid during growth. This acidification is strongly associated with tooth decay, particularly when it results in pH below 5.5, which is a clinically relevant threshold. A slurry of these bacteria were treated with sucrose to stimulate growth, as well as varying concentrations of API-E2 lactoferrin. Upon the addition of sucrose and API-E2 lactoferrin, the pH was adjusted to 7 through a titration and the change in pH was subsequently monitored over the next 6 hours.

[2] = ITC-based assay, binding to LPS
[3] = DSC iron binding capability with excess FeCl3; conditions: FeCl3 added in 1000× molar excess
Protocol: The DSC assay was further used to assess Lactoferrin bioactivity, specifically the iron binding capability of the API-E2 Lactoferrin. Iron chloride (FeCl3) was added in 1000× molar excess to API-E2 Lactoferrin. In the presence of excess iron, the API-E2 lactoferrin will bind the iron to its open iron binding site.

Bifidobacterium longum = assay: Planktonic growth in culture, OD600; format: cell-based; conditions: 10-fold serial dilution of Lf, 18 hours
[4] = system: Staphylococcus epidermidis; assay: Planktonic growth in culture, OD600; format: cell-based; conditions: 10-fold serial dilution of Lf, 18 hours
[5] = system: Extra-Cellular Matrix (ECM) of Caco-2 cells; assay: Lactoferrin enrichment at the ECM by immunofluorescent imaging in Caco-2 cells; format: cell-based, human; conditions: varying concentrations, 37° C. for two hours
Protocol: To assess bioactivity of Lactoferrin, particularly for its potential as an antiviral, binding to the ECM was assessed. Purified Lactoferrin was produced according to Example 1. Caco-2 cells, a human-derived cell culture, cells were allowed to grow for three days after plating on a coverslip such that the cells could proliferate, and the ECM could fully develop. Purified Lactoferrin was then added to the cells at varying concentrations at 37° C. for two hours to allow it to bind as theorized. To directly observe the localization of the API we used Immunofluorescent (IF) imaging and stained both the API and E-cadherin, a cell membrane marker.
Primary localization internally was also observed at low concentrations, but given Lactoferrin has known intracellular roles and a receptor allowing for its uptake, fractional localization of Lactoferrin to the intracellular space was expected. To quantify the localization of the API, the absolute intensity of the fluorescent signal both just outside/along the E-cadherin mark as well as inside the cell was measured.

Pseudomonas aeruginosa = assay: Biofilm formation, crystal violet assay; format: cell-based; conditions: 24 hours of growth
[6] = system: cow with a large infected chronic wound on its leg; assay: Case study of a cow with a large infected chronic wound; format: in vivo; conditions: three daily treatments as freeze dried powder into the wound bed
Protocol: Lactea Lactoferrin (Lactea-Lf) was produced as described in the above examples and freeze-dried by lyophilization into a powder. Lactea-Lf was then administered as the freeze-dried powder in a variety of animal wound contexts.
For these daily treatments, Lf was applied once on each day to cover the open wound area.

[7] = system: ECM of primary buccal cells; assay: ECM association by immunofluorescence in primary buccal cells; format: cell-based; conditions: 100 µg/mL for 1 hr at 37 C
Protocol: Primary buccal cells were next cultured according to a standard protocol (e.g., see Russo et al. Cytotechnology. 2016 October; 68(5): 2105-2114; herein incorporated by reference for all purposes). […] Immunofluorescence imaging was performed as previously described.

E. coli 0157 [8] = assay: Biofilm formation, crystal violet assay; format: cell-based; conditions: for Biofilm Inhibition, Replicate 1 / Biofilm Inhibition, Replicate 2 / Biofilm Inhibition, Replicate 3: 24 hours
Protocol: Lactoferrin was assessed for biofilm growth inhibition. To study the relative concentration dependent efficacy of Lactea-Lf and the Sigma Aldrich research standard Lactoferrin in inhibiting biofilm formation, Lf was added at concentrations ranging from 2 mg/mL to 0.31 mg/mL (2-fold serial dilution curve) to E. coli 0157 in LB seeded at 10∝CFU/mL and incubated for 37° C. for 24 hours. Lactea Lactoferrin (Lactea-Lf) was produced as described in the above examples. The biofilm was stained using a standard crystal violet assay. A quantification of the inhibition of biofilm formation (FIG. 18A) and an image of a representative plate (FIG. 18B) are shown.

E. coli 0157 [9] = assay: Bacterial growth inhibition, OD600 after 16 h; format: cell-based; conditions: 1 mg/mL Lf, 16 h at 37° C.; for Relative Bacterial Growth, Replicate 1 / Relative Bacterial Growth, Replicate 2 / Relative Bacterial Growth, Replicate 3: 10∝CFU/mL E. coli 0157 in LB, OD600 relative to untreated
Protocol: As an analytical standard for the assessment of Lactoferrin (Lf) activity, 1 mg/mL Lf was added to 10∝CFU/mL E. coli 0157 in LB and incubated for 16 h at 37° C. Lactea Lactoferrin (Lactea-Lf) was produced as described in the above examples. Assessed were three independent lots of Lactea-Lf, impure samples which were generated by co-eluting Lactoperoxidase and Lactoferrin (co-elution), samples with degradation products generated by eluting Lactoferrin from old milk which was left for three days (Degradation Products), and a Sigma Aldrich Lactoferrin L9507 (Research Standard). As shown in FIG. 16 and quantified in Table 5, in the Lactea-Lf lots assessed, less than 5% the total growth of bacteria was observed as assessed by OD600 relative to the growth of untreated bacteria under these conditions. In this case, co-elution samples were samples which have a detectable peak of LPO as observable in MALDI-TOF M/S or HPLC. Degradation Products had identifiable degradation peaks as observed in HPLC or DSC.

[10] = format: binding; conditions: ITC, Lf 5 mg/mL in 100 mM MOPS buffer pH 7, HS approximately 100 µM

B1: Lactea-Lf: bovine lactoferrin purified from raw untreated milk by cation exchange chromatography and filtration according to Example 1 (protein)
chain: APRKNVRWCTISQPEWFKCRRWQWRMKKLGAPSITCVRRAFALECIRAIAEKKADAVTLDGGMVFEAGRDPYKLRPVAAEIYGTKESPQTHYYAVAVVKKGSNFQLDQLQGRKSCHTGLGRSAGWVIPMGILRPYLSWTESLEPLQGAVAKFFSASCVPCIDRQAYPNLCQLCKGEGENQCACSSREPYFGYSGAFKCLQDGAGDVAFVKETTVFENLPEKADRDQYELLCLNNSRAPVDAFKECHLAQVPSHAVVARSVDGKEDLIWKLLSKAQEKFGKNKSRSFQLFGSPPGQRDLLFKDSALGFLRIPSKVDSALYLGSRYLTTLKNLRETAEEVKARYTRVVWCAVGPEEQKKCQQWSQQSGQNVTCATASTTDDCIVLVLKGEADALNLDGGYIYTAGKCGLVPVLAENRKTSKYSSLDCVLRPTEGYLAVAVVKKANEGLTWNSLKDKKSCHTAVDRTAGWNIPMGLIVNQTGSCAFDEFFSQSCAPGRDPKSRLCALCAGDDQGLDKCVPNSKEKYYGYTGAFRCLAEDVGDVAFVKNDTVWENTNGESTADWAKNLNREDFRLLCLDGTRKPVTEAQSCHLAVAPNHAVVSRSDRAAHVKQVLLHQQALFGKNGKNCPDKFCLFKSETKNLLFNDNTECLAKLGGRPTYEEYLGTEYVTAIANLKKCSTSPLLEACAFLTR
[1]; 1 mg/mL
  pH of salivary bacteria slurry: above 5.5
[1]; 10 mg/mL
  pH of salivary bacteria slurry: above 5.5
[2]
  binding to LPS: binds to LPS
  competition of LPS binding with HS binding: competitive with HS binding
[3]
  available Apolactoferrin shifted to the Hololactoferrin form: 100%
Bifidobacterium longum
  Inhibition of Planktonic Growth: None
[4]
  Inhibition of Planktonic Growth: None
[5]
  Lactoferrin localization at the ECM (IF imaging): enrichment at the ECM was observed as concentration increased
Pseudomonas aeruginosa
  Inhibition of Biofilm Formation: Strong (Lf was deemed to have a strong activity if biofilms were eliminated or significantly reduced to less than 90% less than no treatment at concentrations of 10 mg/mL or less after 24 hours of growth)
[6]
  healing of infected chronic wound: the wound was completely healed after it was checked after three weeks
[7]
  ECM association of Lactoferrin (immunofluorescence imaging): strong binding along the ECM
E. coli 0157 [8]; E. coli 0157, 24 hours
  concentrations at which potent biofilm inhibition is seen: ≥ 100 µg/mL
E. coli 0157 [8]; [Lf] 0.031 mg/mL
  Biofilm Inhibition, Replicate 1: 0.6591
  Biofilm Inhibition, Replicate 2: 0.8959
  Biofilm Inhibition, Replicate 3: 0.7811
E. coli 0157 [8]; [Lf] 0.063 mg/mL
  Biofilm Inhibition, Replicate 1: 0.1874
  Biofilm Inhibition, Replicate 2: 0.1722
  Biofilm Inhibition, Replicate 3: 0.2125
E. coli 0157 [8]; [Lf] 0.125 mg/mL
  Biofilm Inhibition, Replicate 1: 0.03395
  Biofilm Inhibition, Replicate 2: 0.1076
  Biofilm Inhibition, Replicate 3: 0.0806
E. coli 0157 [8]; [Lf] 0.25 mg/mL
  Biofilm Inhibition, Replicate 1: 0.04609
  Biofilm Inhibition, Replicate 2: 0.07314
  Biofilm Inhibition, Replicate 3: 0.07011
E. coli 0157 [8]; [Lf] 0.5 mg/mL
  Biofilm Inhibition, Replicate 1: 0.04858
  Biofilm Inhibition, Replicate 2: 0.0748
  Biofilm Inhibition, Replicate 3: 0.08915
E. coli 0157 [8]; [Lf] 1 mg/mL
  Biofilm Inhibition, Replicate 1: 0.02346
  Biofilm Inhibition, Replicate 2: 0.09274
  Biofilm Inhibition, Replicate 3: 0.02898
E. coli 0157 [8]; [Lf] 2 mg/mL
  Biofilm Inhibition, Replicate 1: 0.006072
  Biofilm Inhibition, Replicate 2: 0.01601
  Biofilm Inhibition, Replicate 3: −0.01297
E. coli 0157 [9]; listed as Lactea-Lf Lot 1
  Relative Bacterial Growth, Replicate 1: 3.15E−09
  Relative Bacterial Growth, Replicate 2: 0.002228
  Relative Bacterial Growth, Replicate 3: 0.04512
E. coli 0157 [9]; listed as Lactea-Lf Lot 2
  Relative Bacterial Growth, Replicate 1: 0.01532
  Relative Bacterial Growth, Replicate 2: 0.005292
  Relative Bacterial Growth, Replicate 3: 0.01281
E. coli 0157 [9]; listed as Lactea-Lf Lot 3
  Relative Bacterial Growth, Replicate 1: 0.003621
  Relative Bacterial Growth, Replicate 2: 0.01059
  Relative Bacterial Growth, Replicate 3: 0.008635
E. coli 0157 [9]
  total growth of bacteria by OD600 relative to the growth of untreated bacteria: less than 5%
[10]
  binding to Heparan Sulfate: far greater binding to Heparan Sulfate than the research standard
